These results are taken from article PMC9684555, “Structure- and computational-aided engineering of an oxidase to produce isoeugenol from a lignin-derived compound” (Nature Communications, 2022).

For orientation: Km means the concentration of substrate that gives half-maximal velocity. As a reminder, the kcat is the number of substrate molecules converted per active site and unit of time at saturation.

Substrate in data set [1]: CCCc1ccc(O)c(OC)c1
Kind of data set: purified protein. It counts as biochemical, Rhodococcus jostii. The settings on record: 50 mM KPi pH 7.5, 10% v/v DMSO, 10 µM to 1 mM substrate, O2 co-substrate, 1.0 µM enzyme.

Substrate in data set [2]: COc1cc(CO)ccc1O
Kind of data set: purified protein. It counts as biochemical, Rhodococcus jostii. The settings on record: 50 mM KPi pH 7.5, O2 co-substrate, 0.05 µM enzyme.

B1: EUGO (eugenol oxidase) (Rhodococcus jostii RHA1) (protein)
chain: MTRTLPPGVSDERFDAALQRFRDVVGDKWVLSTADELEAFRDPYPVGAAEANLPSAVVSPESTEQVQDIVRIANEYGIPLSPVSTGKNNGYGGAAPRLSGSVIVKTGERMNRILEVNEKYGYALLEPGVTYFDLYEYLQSHDSGLMLDCPDLGWGSVVGNTLDRGVGYTPYGDHFMWQTGLEVVLPQGEVMRTGMGALPGSDAWQLFPYGFGPFPDGMFTQSNLGIVTKMGIALMQRPPASQSFLITFDKEEDLEQIVDIMLPLRINMAPLQNVPVLRNIFMDAAAVSKRTEWFDGDGPMPAEAIERMKKDLDLGFWNFYGTLYGPPPLIEMYYGMIKEAFGKIPGARFFTHEERDDRGGHVLQDRHKINNGIPSLDELQLLDWVPNGGHIGFSPVSAPDGREAMKQFEMVRNRANEYNKDYAAQFIIGLREMHHVCLFIYDTAIPEAREEILQMTKVLVREAAEAGYGEYRTHNALMDDVMATFNWGDGALLKFHEKIKDALDPNGIIAPGKSGIWSQRFRGQNL
notes: full length, 526 residues, C-terminal His6 tag (pBAD-EUGO-His6x), E. coli NEB10beta; covalent FAD; homodimer; mutants for crystals from His-SUMO fusion, tag cleaved
As for B1, in the data set “purified protein [1]”, the Michaelis constant (Km) is given as 3.3 ± 0.9 µM and the catalytic constant (kcat) was 0.008 ± 0.0003 s⁻¹. Further, in the data set “purified protein [2]”, the Km came out at 43.0 ± 2.2 µM and the kcat was determined as 6.8 ± 0.2 s⁻¹.
